Experimental findings from the supplement of paper PMC7877785 are described below.

A short description of the data set: self-splicing fitness, log relative to wild type (ln ratio); higher = more splicing; Tetrahymena group I intron in knt gene, E. coli kanamycin selection, DiMSum; sequences stand for … in CUCUCU…GGAGGGAAAAGUUAUCAGGCAUGCACCUGGUAGCUAGUCUUUAAACCAAUAGAUUGCAUCGGUUUAAAAGGCAAGACCGUCAAAUUGCGGGAAAGGGGUCAACAGCCGUUCAGUACCAAGUCUCAGGGGAAACUUUGAGAUGGCCUUGCAAAGGGUAUGGUAAUAAGCUGACGGACAUGGUCCUAACCACGCAGCCAAGUCCUAAGUCAACAGAUCUUCUGUUGAUAUGGAUGCAGUUCACAGACUAAAUGUCGGUCGGGGAAGAUGUAUUCUUCUCAUAAGAUAUAGUCGGACCUCUCCUUAAUGGGAGCUAGCGGAUGAAGUGAUGCAACACUGGAGCCGCUGGGAACUAAUUUGUAUGCGAAAGUAUAUUGAUUAGUUUUGGAGUACUCGUGGUCG
The procedure, abridged:
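Colonies from six replicate transformations of E. coli BL21(DE3) were pooled and amplicon-sequenced on an Illumina HiSeq 2500. The library placed an intron with all eight P1ex-region nucleotides randomised inside the knt kanamycin-resistance gene on pET-22b(+), and cells grew overnight at 37°C or 30°C on LB agar with or without 25 μg/mL kanamycin (plus 100 μg/mL carbenicillin, 50 μM IPTG, 0.2% rhamnose). Fitness is the DiMSum error-weighted combination of wild-type-normalised replicate fold changes, kanamycin versus none.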

± gives the uncertainty stated by the source.

As to CACAAGCAAUAUUACGGUUU, the “self-splicing fitness (ln)” value runs as follows: (30 °C) -3.34 ± 0.14; (37 °C) -2.59 ± 0.19.

As for CACAAGCAAUAUUACGUAGU, the “self-splicing fitness (ln)” value (30 °C) was -3.4 ± 0.12 and the “self-splicing fitness (ln)” value (37 °C) was -1.81 ± 0.11. In the same order, the values of CACAAGCAAUAUUACGUCCA are -3.23 ± 0.2 and -1.59 ± 0.12. In the same order, the values of CACAAGCAAUAUUACGUCCG are -0.428 ± 0.094 and 0.252 ± 0.12. The like results for CACAAGCAAUAUUACGUCGA were, in that order, -2.62 ± 0.078 and -0.984 ± 0.073. For CACAAGCAAUAUUACGUCUU, the “self-splicing fitness (ln)” value is, setting by setting: (30 °C) -3.88 ± 0.17; (37 °C) -2.25 ± 0.14. For CACAAGCAAUAUUACGUGGA, the “self-splicing fitness (ln)” value by setting is: (30 °C) -2.95 ± 0.11; (37 °C) -2.81 ± 0.13. In the same order, the values of CACCAGCAAUAUUACGAACG are 0.223 ± 0.063 and 0.344 ± 0.078.

For CACCAGCAAUAUUACGACCA, the “self-splicing fitness (ln)” value (30 °C) was -1.94 ± 0.13 and the “self-splicing fitness (ln)” value (37 °C) is -0.0102 ± 0.16. Take CACCAGCAAUAUUACGAGAU: the “self-splicing fitness (ln)” value was -3.87 ± 0.17 (30 °C) and -2.42 ± 0.16 (37 °C). The like results for CACCAGCAAUAUUACGAUUU were, in that order, -3.36 ± 0.15 and -1.52 ± 0.13. The like results for CACCAGCAAUAUUACGCAAU were, in that order, -4.25 ± 0.18 and -4.19 ± 0.16. Turning to CACCAGCAAUAUUACGCAUU, the “self-splicing fitness (ln)” value (30 °C) was -2.6 ± 0.086 and the “self-splicing fitness (ln)” value (37 °C) was -1.86 ± 0.1. In the same order, the values of CACCAGCAAUAUUACGCCCA are -1.72 ± 0.099 and -1.71 ± 0.13.

As for CACCAGCAAUAUUACGCGGU, the “self-splicing fitness (ln)” value was -3.67 ± 0.12 (30 °C) and -3.31 ± 0.15 (37 °C). The like results for CACCAGCAAUAUUACGCGUG were, in that order, -3.74 ± 0.16 and -2.44 ± 0.13. In the same order, the values of CACCAGCAAUAUUACGCUAA are -2.78 ± 0.13 and -2.33 ± 0.16. The like results for CACCAGCAAUAUUACGCUCG were, in that order, -0.247 ± 0.062 and 0.219 ± 0.087. As for CACCAGCAAUAUUACGGAAU, the “self-splicing fitness (ln)” value runs as follows: (30 °C) -2.97 ± 0.14; (37 °C) -2.18 ± 0.16.

For the sequence CACCAGCAAUAUUACGGAUA, the “self-splicing fitness (ln)” value is, setting by setting: (30 °C) -1.42 ± 0.065; (37 °C) -1.18 ± 0.069. The like results for CACCAGCAAUAUUACGGGGC were, in that order, -4.45 ± 0.22 and -1.29 ± 0.14. For CACCAGCAAUAUUACGUAUU, the “self-splicing fitness (ln)” value reads like this: (30 °C) -3.78 ± 0.15; (37 °C) -2.7 ± 0.16.

As for CACCAGCAAUAUUACGUCCA, the “self-splicing fitness (ln)” value runs as follows: (30 °C) -3.43 ± 0.26; (37 °C) -2.26 ± 0.2. The like results for CACCAGCAAUAUUACGUUAA were, in that order, -3.35 ± 0.095 and -2.37 ± 0.11. With CACCAGCAAUAUUACGUUCG, the “self-splicing fitness (ln)” value (30 °C) was -0.281 ± 0.049 and the “self-splicing fitness (ln)” value (37 °C) is -0.196 ± 0.062. In the case of CACCAGCAAUAUUACGUUUA, the “self-splicing fitness (ln)” value (30 °C) was -3.33 ± 0.16 and the “self-splicing fitness (ln)” value (37 °C) was -2.47 ± 0.13. In the same order, the values of CACGAGCAAUAUUACGACUG are -2.46 ± 0.1 and -0.773 ± 0.12. As for CACGAGCAAUAUUACGAGGC, the “self-splicing fitness (ln)” value was -3.19 ± 0.26 (30 °C) and -1.81 ± 0.24 (37 °C).

Consider CACGAGCAAUAUUACGAGUA, for which the “self-splicing fitness (ln)” value runs as follows: (30 °C) -2.53 ± 0.16; (37 °C) -2.11 ± 0.22. In the case of CACGAGCAAUAUUACGAUUC, the “self-splicing fitness (ln)” value is, setting by setting: (30 °C) -3.44 ± 0.15; (37 °C) -2.49 ± 0.17. The like results for CACGAGCAAUAUUACGCAAA were, in that order, -3.96 ± 0.33 and -2.08 ± 0.19. The like results for CACGAGCAAUAUUACGCAAC were, in that order, -1.88 ± 0.44 and -2.56 ± 0.36. Turning to CACGAGCAAUAUUACGCUAC, where the note is “37 °C”, the “self-splicing fitness (ln)” value is -2.5 ± 0.37. Turning to CACGAGCAAUAUUACGGACA, the “self-splicing fitness (ln)” value runs as follows: (30 °C) -3.03 ± 0.22; (37 °C) -2.9 ± 0.22. The like results for CACGAGCAAUAUUACGGACG were, in that order, -1.34 ± 0.075 and -0.15 ± 0.1. In the same order, the values of CACGAGCAAUAUUACGGCAA are -3.69 ± 0.27 and -2.09 ± 0.14. The like results for CACGAGCAAUAUUACGGGGG were, in that order, -3.04 ± 0.19 and -2.52 ± 0.25. For the sequence CACGAGCAAUAUUACGGGUG, the “self-splicing fitness (ln)” value was -3.79 ± 0.21 (30 °C) and -2.25 ± 0.18 (37 °C).

As to CACGAGCAAUAUUACGGUGC, the “self-splicing fitness (ln)” value by setting is: (30 °C) -3.91 ± 0.37; (37 °C) -2.76 ± 0.28. In the same order, the values of CACGAGCAAUAUUACGUCAG are -3.42 ± 0.13 and -2.32 ± 0.11.

Turning to CACGAGCAAUAUUACGUCGG, the “self-splicing fitness (ln)” value reads like this: (30 °C) -2.27 ± 0.11; (37 °C) -2.16 ± 0.17. The like results for CACGAGCAAUAUUACGUCUC were, in that order, -2.49 ± 0.27 and -3.63 ± 0.34.

As for CACGAGCAAUAUUACGUGAG, the “self-splicing fitness (ln)” value (30 °C) is -4.08 ± 0.19 and the “self-splicing fitness (ln)” value (37 °C) is -2.38 ± 0.19. Turning to CACGAGCAAUAUUACGUGGU, the “self-splicing fitness (ln)” value is -3.86 ± 0.24 (30 °C) and -2.25 ± 0.18 (37 °C).

Take CACGAGCAAUAUUACGUGUA: the “self-splicing fitness (ln)” value (30 °C) was -3.1 ± 0.21 and the “self-splicing fitness (ln)” value (37 °C) is -2.88 ± 0.2. The like results for CACUAGCAAUAUUACGAGUC were, in that order, -2.82 ± 0.21 and -2.01 ± 0.19. The like results for CACUAGCAAUAUUACGCACA were, in that order, -0.953 ± 0.094 and -0.695 ± 0.08. In the same order, the values of CACUAGCAAUAUUACGCAGA are -2.54 ± 0.19 and -2.16 ± 0.19. For the sequence CACUAGCAAUAUUACGCAGU, the “self-splicing fitness (ln)” value (30 °C) is -4.15 ± 0.42 and the “self-splicing fitness (ln)” value (37 °C) was -2.78 ± 0.33.

On to CACUAGCAAUAUUACGCCGG, for which the “self-splicing fitness (ln)” value is -0.975 ± 0.073 (30 °C) and -0.471 ± 0.1 (37 °C). The like results for CACUAGCAAUAUUACGCGCA were, in that order, -2.52 ± 0.16 and -1.85 ± 0.2. The like results for CACUAGCAAUAUUACGCUCA were, in that order, -2.66 ± 0.21 and -2.08 ± 0.17.

On to CACUAGCAAUAUUACGCUCU, for which the “self-splicing fitness (ln)” value (30 °C) was -2.46 ± 0.18 and the “self-splicing fitness (ln)” value (37 °C) is -0.207 ± 0.13. In the same order, the values of CACUAGCAAUAUUACGGCAA are -4.1 ± 0.42 and -2.08 ± 0.18. Regarding CACUAGCAAUAUUACGGCCC, the “self-splicing fitness (ln)” value (37 °C) is -1.71 ± 0.46. On to CACUAGCAAUAUUACGGGAA, for which the “self-splicing fitness (ln)” value by setting is: (30 °C) -2.2 ± 0.18; (37 °C) -2.29 ± 0.17.

Consider CACUAGCAAUAUUACGGGUG, for which the “self-splicing fitness (ln)” value (30 °C) was -4.03 ± 0.36 and the “self-splicing fitness (ln)” value (37 °C) was -2.57 ± 0.21.

Take CACUAGCAAUAUUACGGUGA: the “self-splicing fitness (ln)” value runs as follows: (30 °C) -3.47 ± 0.21; (37 °C) -2.22 ± 0.18. Consider CACUAGCAAUAUUACGGUGC, for which the “self-splicing fitness (ln)” value reads like this: (30 °C) -2.24 ± 0.22; (37 °C) -2.43 ± 0.35. The like results for CACUAGCAAUAUUACGUCCU were, in that order, -2.36 ± 0.13 and -1.24 ± 0.18. CACUAGCAAUAUUACGUCUC: the “self-splicing fitness (ln)” value is, setting by setting: (30 °C) -4.18 ± 0.26; (37 °C) -2.43 ± 0.2. The like results for CACUAGCAAUAUUACGUGUC were, in that order, -3.71 ± 0.14 and -2.93 ± 0.15.

For CACUAGCAAUAUUACGUUUC, the “self-splicing fitness (ln)” value reads like this: (30 °C) -4.29 ± 0.3; (37 °C) -1.98 ± 0.29.

With CAGAAGCAAUAUUACGAAGU, the “self-splicing fitness (ln)” value is -3.9 ± 0.37 (30 °C) and -2.48 ± 0.26 (37 °C). In the same order, the values of CAGAAGCAAUAUUACGACAU are -3.128 ± 0.02 and -1.87 ± 0.034. As to CAGAAGCAAUAUUACGACCG, the “self-splicing fitness (ln)” value turned out to be 0.169 ± 0.12 (30 °C) and 0.634 ± 0.15 (37 °C).

Turning to CAGAAGCAAUAUUACGACUG, the “self-splicing fitness (ln)” value is -3.23 ± 0.21 (30 °C) and -2.48 ± 0.19 (37 °C). The like results for CAGAAGCAAUAUUACGAUGC were, in that order, -4.82 ± 0.42 and -2.92 ± 0.35. As for CAGAAGCAAUAUUACGAUUC, the “self-splicing fitness (ln)” value (37 °C) was -1.98 ± 0.18. As for CAGAAGCAAUAUUACGCCAG, the “self-splicing fitness (ln)” value is, setting by setting: (30 °C) -0.586 ± 0.072; (37 °C) -0.605 ± 0.12. In the same order, the values of CAGAAGCAAUAUUACGGCAA are -2.48 ± 0.22 and -1.25 ± 0.19. Take CAGAAGCAAUAUUACGGUAU: the “self-splicing fitness (ln)” value was -3.21 ± 0.19 (30 °C) and -2.47 ± 0.22 (37 °C). In the same order, the values of CAGAAGCAAUAUUACGGUUG are -1.2 ± 0.069 and -1.08 ± 0.098. The like results for CAGAAGCAAUAUUACGUAAG were, in that order, -0.12 ± 0.057 and 0.772 ± 0.074. The like results for CAGAAGCAAUAUUACGUAUA were, in that order, -3.84 ± 0.21 and -1.84 ± 0.14.
